Positions count from the first letter of the chain named. Blank lines part the entries; values can stand above or below the binder they belong to.
Experiments:
rat GM-CSF [1] = target: T1, rat GM-CSF (rat, UniProt P48750 18-144); assay: solution equilibrium titration (SET), Fab with rat GM-CSF (Peprotech) as analyte in solution
T1 construct: Bought recombinant protein; also called rat-GM-CSF (Peprotech); rat recombinant GM-CSF
T1 sequence (looked up): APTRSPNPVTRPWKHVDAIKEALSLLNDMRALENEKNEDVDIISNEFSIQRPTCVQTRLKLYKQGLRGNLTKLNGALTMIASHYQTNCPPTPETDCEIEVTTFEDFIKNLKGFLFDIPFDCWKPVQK

human GM-CSF [2] = target: T2, human GM-CSF (human, UniProt P04141 18-144); assay: cell-based or functional assay
T2 sequence (P04141 18-144): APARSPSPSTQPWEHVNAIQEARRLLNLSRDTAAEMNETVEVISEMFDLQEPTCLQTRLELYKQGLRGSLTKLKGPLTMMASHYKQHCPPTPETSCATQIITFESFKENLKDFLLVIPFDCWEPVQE

human GM-CSF [3] = target: T2, human GM-CSF; assay: cell-based or functional assay; remark: listed apart in the source
rat GM-CSF [4] = target: T1, rat GM-CSF; assay: SPR (Biacore 3000), Fab captured on anti-F(ab)2, rat GM-CSF as analyte
Procedure: (§1) This was performed in a capture set-up by surface plasmon resonance (Biacore 3000, Uppsala, Sweden).
(§2) CM5 chips (Biacore, Sweden) were coated with 5000-6000 RU anti-F(ab)₂ (Dianova, Affinipure F(ab)₂ Fragment Goat Anti-Human IgG, F(ab)₂ Fragment specific); 80 μg/ml 10 mM acetate buffer, pH4 on all 4 flow cells, using standard EDC-NHS amine coupling chemistry. […] After capturing of the specific Fab, buffer was injected, to determine the dissociation of anti-Fab/Fab interaction. In a following cycle, the analyte growth factor was injected (20 μl, flow rate 20 μl/min) at a concentration range between 15 and 2000 nM for the determination of the specific signal. Afterwards the achieved buffer sensogram was manually subtracted from the specific one. After each cycle, the flow cells were regenerated with 100 mM HCl (5 μl).

human GM-CSF [5] = target: T2, human GM-CSF; assay: solution equilibrium titration (SET, ECL/BioVeris), Fab with human GM-CSF (Leucomax) in solution
human GM-CSF [6] = target: T2, human GM-CSF; assay: SPR (Biacore), Fab over immobilized recombinant human GM-CSF (Peprotech), F1 chip; affinity estimated from off-rates
Procedure: A respective amount of HSA was immobilized on the reference flow cell. […] Fab was applied in concentration series of 6.3-200 nM at a flow rate of 20 μl/min.

human GM-CSF [7] = target: T2, human GM-CSF; assay: FACS receptor inhibition assay: inhibition of binding of 0.5 µg/ml biotinylated GM-CSF to GM-CSF receptor alpha on CHO-GMRa#11 cells
Procedure: (§3) All stainings were performed in round bottom 96-well culture plates (Nalge Nunc) with 1-5×10⁵ cells per well. […] Cells were then washed once with 150 μl FACS buffer/well and taken up in 100 μl phycoerythrin-labeled streptavidin (BD Biosciences Pharmingen) which has been diluted 1:400 in FACS buffer. […] IC₅₀ values were determined from the dose response curves obtained using GraphPad Prism v3.03 software applying a non-linear regression curve fit.
(§4) IC₅₀ values were determined from the dose response curves obtained using GraphPad Prism v3.03 software applying a non-linear regression curve fit.

human GM-CSF [8] = target: T2, human GM-CSF; assay: FACS receptor inhibition assay: antibody pre-incubated with 0.5 µg/ml biotinylated GM-CSF, binding to GM-CSF receptor alpha on CHO-GMRa#11 cells
Procedure: as §3, §4

[9] = target: macaca mulatta (rhesus) GM-CSF (Macaca mulatta (rhesus)); assay: cell-based or functional assay
rat GM-CSF [10] = target: T1, rat GM-CSF; assay: solution equilibrium titration (SET), IgG1 with rat GM-CSF (Peprotech) as analyte in solution
human GM-CSF [11] = target: T2, human GM-CSF; assay: cell-based or functional assay; remark: listed apart in the source
rat GM-CSF [12] = target: T1, rat GM-CSF; assay: SPR (Biacore 3000), Fab captured on anti-F(ab)2, cytokine as analyte
Procedure: as §1, §2

mouse GM-CSF = target: T3, mouse GM-CSF (mouse, UniProt P01587 18-141); assay: as above
T3 construct: Bought recombinant protein
T3 sequence (looked up): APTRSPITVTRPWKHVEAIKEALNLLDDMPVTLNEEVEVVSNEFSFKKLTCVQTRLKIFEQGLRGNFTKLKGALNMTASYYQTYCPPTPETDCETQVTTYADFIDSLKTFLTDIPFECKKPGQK
Procedure: as §1, §2

human IL-3 = target: T4, human IL-3 (human, UniProt P08700 20-152); assay: as above
T4 construct: Bought recombinant protein
T4 sequence (looked up): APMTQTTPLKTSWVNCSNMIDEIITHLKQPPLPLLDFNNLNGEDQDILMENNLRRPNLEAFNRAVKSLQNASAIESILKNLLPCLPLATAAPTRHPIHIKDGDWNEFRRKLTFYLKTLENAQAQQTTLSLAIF
Procedure: as §1, §2

human IL-4 = target: T5, human IL-4 (human, UniProt P05112 25-153); assay: as above
T5 construct: Bought recombinant protein
T5 sequence (looked up): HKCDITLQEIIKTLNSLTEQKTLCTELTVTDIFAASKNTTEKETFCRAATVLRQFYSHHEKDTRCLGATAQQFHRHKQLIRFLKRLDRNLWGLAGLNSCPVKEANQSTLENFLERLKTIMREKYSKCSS
Procedure: as §1, §2

human IL-5 = target: T6, human IL-5 (human, UniProt P05113 20-134); assay: as above
T6 construct: Bought recombinant protein
T6 sequence (looked up): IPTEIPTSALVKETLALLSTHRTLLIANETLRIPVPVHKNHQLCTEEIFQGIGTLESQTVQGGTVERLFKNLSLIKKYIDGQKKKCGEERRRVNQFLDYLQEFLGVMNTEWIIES
Procedure: as §1, §2

human IL-13 = target: T7, human IL-13 (human, UniProt P35225 35-146); assay: as above
T7 construct: Bought recombinant protein
T7 sequence (P35225 35-146 limits assumed): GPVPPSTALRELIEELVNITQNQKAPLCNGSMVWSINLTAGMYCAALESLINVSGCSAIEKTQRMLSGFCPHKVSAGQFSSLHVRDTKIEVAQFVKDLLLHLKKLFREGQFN
Procedure: as §1, §2

human M-CSF = target: T8, human M-CSF (human, UniProt P09603 33-190, limits assumed); assay: as above
T8 construct: Bought recombinant protein
T8 sequence (looked up): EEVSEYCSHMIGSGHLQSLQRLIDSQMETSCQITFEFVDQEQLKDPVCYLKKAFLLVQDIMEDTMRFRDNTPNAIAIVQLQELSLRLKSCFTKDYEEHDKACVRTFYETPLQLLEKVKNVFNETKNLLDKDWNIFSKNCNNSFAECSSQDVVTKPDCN
Procedure: as §1, §2

- Kd (rat GM-CSF [1]): 1 nM
B1: MOR04357 Fab (Fab, V domains shown)
VH: QVQLVESGGGLVQPGGSLRLSCAASGFTFSSYWMNWVRQAPGKGLEWVSGIENKYAGGATYYAASVKGRFTISRDNSKNTLYLQMNSLRAEDTAVYYCARGFGTDFWGQGTLVTVSS
VL: DIELTQPPSVSVAPGQTARISCSGDSIGKKYAYWYQQKPGQAPVLVIYKKRPSGIPERFSGSNSGNTATLTISGTQAEDEADYYCSAWGDKGMVFGGGTKLTVLG
notes: X-cloned Fab (VH of MOR04252 x VL of MOR04302) with FLAG and 6xHis tags; also called Fab MOR04357

- inhibition of TF1 cell proliferation at 2 µM Fab, human GM-CSF (Leucomax) 0.25 ng/ml (human GM-CSF [2]): > 50%
- IC50 (pM) in TF-1 proliferation assay, human GM-CSF 0.25 ng/ml (human GM-CSF [3]): > 200000 pM
- Kd (human GM-CSF [5]): 16 nM
- Kd (human GM-CSF [6]): 6.42 nM
- % inhibition at 5 µg/ml antibody (human GM-CSF [7]): ~25%
- IC50 (human GM-CSF [8]): > 400 nM
B5: MOR03684 Fab (Fab, V domains shown)
VH: QVQLVESGGGLVQPGGSLRLSCAASGFTFSSHWMSWVRQAPGKGLEWVSNGIFSDGSATYYADSVKGRFTISRDNSKNTLYLQMNSLRAEDTAVYYCARFQGYGGGFDYWGQGTLVTVSS
VL: DIELTQPPSVSVAPGQTARISCSGDNLPGKYVHWYQQKPGQAPVLVIYYDSNRPSGIPERFSGSNSGNTATLTISGTQAEDEADYYCQSRTQTTIVFGGGTKLTVLG
notes: carries two C-terminal tags (FLAG and 6xHis); also called antibody no
- binding result (rat GM-CSF [12]): no binding (tested: analyte 15 to 2000 nM)
- binding result (mouse GM-CSF): no binding (tested: analyte 15 to 2000 nM)
- binding result (human IL-3): no binding (tested: analyte 15 to 2000 nM)
- binding result (human IL-4): no binding (tested: analyte 15 to 2000 nM)
- binding result (human IL-5): no binding (tested: analyte 15 to 2000 nM)
- binding result (human IL-13): no binding (tested: analyte 15 to 2000 nM)
- binding result (human M-CSF): no binding (tested: analyte 15 to 2000 nM)

The remaining lines, values behind:

B2: MOR03929 Fab (Fab, V domains shown)
VH: QVQLVESGGGLVQPGGSLRLSCAASGFTFSSYWMNWVRQAPGKGLEWVSGISYSGSETYYADSVKGRFTISRDNSKNTLYLQMNSLRAEDTAVYYCARGFGTDFWGQGTLVTVSS
VL: B1 VL with A87S, G89D, D90S, K91T, M93L
notes: Parental HuCAL GOLD Fab with C-terminal FLAG and 6xHis tags
- inhibition of TF1 cell proliferation at 2 µM Fab, human GM-CSF (Leucomax) 0.25 ng/ml (human GM-CSF [2]): > 50%
- IC50 (pM) in TF-1 proliferation assay, human GM-CSF 0.25 ng/ml (human GM-CSF [3]): > 200000 pM
- binding result (rat GM-CSF [4]): binds
- Kd (human GM-CSF [5]): 2 nM
- Kd (human GM-CSF [6]): 4.26 nM
- % inhibition at 5 µg/ml antibody (human GM-CSF [7]): ~60%
- IC50 (human GM-CSF [8]): 35 nM

B3: MOR04357 IgG1 (antibody, V domains shown)
VH: B1 VH
VL: B1 VL
notes: expressed in HKB11 cells; also called IgG1 MOR04357
- IC50 (pM) in TF-1 proliferation assay, macaca GM-CSF (HEK293) [9]: 15 pM
- Kd (rat GM-CSF [10]): 0.13 nM

B4: MOR03682 Fab (Fab, V domains shown)
VH: QVQLVQSGAEVKKPGSSVKVSCKASGGTFNSFLISWVRQAPGQGLEWMGGIIPIFGTANYAQKFQGRVTITADESTSTAYMELSSLRSEDTAVYYCARKFISDSWGQGTLVTVSS
VL: DIQMTQSPSSLSASVGDRVTITCRASQTINNYLNWYQQKPGKAPKLLIYTASNLQSGVPSRFSGSGSGTDFTLTISSLQPEDFAVYYCQQYSGSPMTFGQGTKVEIKR
notes: as for B2
- inhibition of TF1 cell proliferation at 2 µM Fab, human GM-CSF (Leucomax) 0.25 ng/ml (human GM-CSF [2]): > 50%
- IC50 (pM) in TF-1 proliferation assay, human GM-CSF (human GM-CSF [11]): > 200000 pM
- binding result (rat GM-CSF [12]): no binding (tested: analyte 15 to 2000 nM)
- binding result (mouse GM-CSF): no binding (tested: analyte 15 to 2000 nM)
- binding result (human IL-3): no binding (tested: analyte 15 to 2000 nM)
- binding result (human IL-4): no binding (tested: analyte 15 to 2000 nM)
- binding result (human IL-5): no binding (tested: analyte 15 to 2000 nM)
- binding result (human IL-13): no binding (tested: analyte 15 to 2000 nM)
- binding result (human M-CSF): no binding (tested: analyte 15 to 2000 nM)
- Kd (human GM-CSF [5]): 11.4 nM
